Measurements reported in US20130017251A1 (J DAVID GLADSTONE INSTITUTES, published 2013).

Tests used:
[1] = target: T1, N-terminal 22-kDa fragment of apoE3 (aa 1-191) (human, UniProt P02649 19-209); test: ELISA on coated fragment
T1 construct: Range 1-191 is in apoE (299-residue) numbering
Method: (§1) ApoE ELISA. […] Wells were washed several times with wash buffer (PBS containing 0.1% bovine serum albumin (BSA)) and blocked for 1 h with 4% BSA in PBS. All incubations were performed at room temperature. […] Secondary antibodies against goat or mouse IgG labeled with horse radish peroxidase (HRP) diluted in blocking buffer were added to the wells after several washes and incubated for 1 h. […] substrate (Thermo-Pierce) was used to visualize the amount of bound secondary antibody at 450 nm on a SpectraMax190 plate reader (Molecular Devices) using Softmax Pro software for data collection.
(§2) A, A schematic of different functional domains of human apoE. […] All experiments were performed in triplicate. Values are mean±SD. OD, optical density.

[2] = target: T2, N-terminal 22-kDa fragment of apoE4 (aa 1-191) (human, UniProt P02649 19-209); test: ELISA on coated fragment
T2 construct: Range 1-191 is in apoE (299-residue) numbering
T2 chain: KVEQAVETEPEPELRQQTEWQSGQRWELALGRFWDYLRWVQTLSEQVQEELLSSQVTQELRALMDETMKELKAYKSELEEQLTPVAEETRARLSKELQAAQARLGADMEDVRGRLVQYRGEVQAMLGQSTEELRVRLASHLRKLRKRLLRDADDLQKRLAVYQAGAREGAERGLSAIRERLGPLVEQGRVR
Method: as §1, §2

[3] = target: T3, recombinant human apolipoprotein E4, full length (human, UniProt P02649 19-317); test: ELISA; apoE coated (50 ng/well), 3H1 as primary antibody
T3 construct: Recombinant protein in ELISA; expressed in transfected Neuro-2a or C6 cells for western blot and cell staining; also called apoE4; apoE4(1-299)
Method: Secondary antibodies against goat or mouse IgG labeled with horse radish peroxidase (HRP) diluted in blocking buffer were added to the wells after several washes and incubated for 1 h. […] substrate (Thermo-Pierce) was used to visualize the amount of bound secondary antibody at 450 nm on a SpectraMax190 plate reader (Molecular Devices) using Softmax Pro software for data collection.
as §2

apoE(1-240) = target: T4, apoE(1-240) (human, UniProt P02649 19-258); test: western blot, transfected Neuro-2a cells
T4 construct: If 1-244 is right the range is 19-262
Method: (§3) Cell culture, transfection, and western blotting. Mouse neuroblastoma (Neuro-2a) and astrocytic (C6) cells (American Type Culture Collection, Manassas, Va.) maintained at 37° C. in MEM containing 10% fetal bovine serum (FBS) were transiently transfected with different apoE cDNA constructs using Lipofectamine 2000 (Invitrogen) (Huang et al., 2001). Neuro-2a cells expressing different forms of apoE were collected in a low-detergent lysis buffer, separated by sodium dodecyl sulfate-polyacrylamide gel electrophoresis (SDS-PAGE), and immunoblotted for apoE with polyclonal and monoclonal antibodies, as described (Huang et al., 2001).

apoE(1-260) = target: T5, apoE(1-260) (human, UniProt P02649 19-278); test: western blot, transfected Neuro-2a cells
T5 construct: Expressed in transiently transfected Neuro-2a cells; also called apoE4(1-260)
Method: as §3

[4] = target: T6, green fluorescent protein-apoE(231-272) (human, UniProt P02649 249-290, not fully specified); test: western blot, transfected Neuro-2a cells
T6 construct: Expressed in transiently transfected Neuro-2a cells; not shown: green fluorescent protein tag
T6 chain: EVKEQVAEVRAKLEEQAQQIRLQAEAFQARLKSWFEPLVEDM
Method: as §3

[5] = target: T7, DMPC-lipidated apoE4 (DMPC:apoE=4:1) (human, UniProt P02649 19-317); test: ELISA; lipid-free or DMPC-lipidated apoE coated (50 ng protein/well)
T7 construct: Same protein as m2, in complex with dimyristoyl phosphatidylcholine (not covalent)
Method: (§4) Preparation of apoE and DMPC complex. Dimyristoyl phosphatidylcholine (DMPC) (Avanti Polar Lipids, Alabaster, Ala.) was used at a concentration of 20 mg/ml dissolved into phosphate-buffered saline (PBS). DMPC solution was sonicated for 6 min per cycle until the solution became clear and centrifuged at 14,000 rpm for 2 min to pellet debris. ApoE was then added to obtain various final stock concentrations and allowed to incubate at 23.7° C. overnight before use in enzyme-linked immunosorbent assay (ELISA) experiments.
as §1
(§5) All experiments were performed in triplicate. Values are mean±SD. OD, optical density.

[6] = target: T8, DMPC-lipidated apoE3 (DMPC:apoE=4:1) (human, UniProt P02649 19-317); test: as above
T8 construct: Same protein as m3, in complex with dimyristoyl phosphatidylcholine (not covalent)
Method: as §4, §1, §5

[7] = target: T3, recombinant human apolipoprotein E4, …; test: inhibition ELISA; apoE preincubated with 3H1 IgG, added to Aβ1-42-coated wells
Method: ApoE and Aβ binding assay. Aβ₁₋₄₂ (Biopeptides) was used to coat the surface of a 96-well plate at 330 ng/well and ELISA was performed essentially as described above. […] Subsequent detection of apoE bound with Aβ was performed with polyclonal anti-apoE, as stated above.
FIGS. 6A and 6B. […] After washing, the binding of apoE to Aβ was detected with polyclonal anti-apoE in an ELISA. […] After incubation, the mixture was added to Aβ₁₋₄₂-coated wells, and the binding of apoE to Aβ was detected with polyclonal anti-apoE after washing. All experiments were performed in triplicate. Values are mean±SD. OD, optical density.

B1: apoE-specific monoclonal antibody 3H1 (antibody, V domains shown)
VH: EVQLVESGGGLVKPGGSLKLSCAASGFTFSSYAMSWVRQTPEKRLEWVATISSGGSYTYYPDSVKGRFTISRDNAKNTLYLQMSSLRSEDTAMYYCARQFYYYGGSYDYFDYWGQGTTLTVS
VL: DIVLTQSPATLSVTPGDSVSLACRASQSISNNLHWYQQKSHESPRLLIKYAYQSISGIPSRFSGSGSGTDFTLSINSVETEDFGMYFCQQSNSWPLTFGVGTKLEIKR
notes: Mouse monoclonal IgG (detected with anti-mouse IgG; used as purified 3H1 IgG); also called 3H1 IgG; purified 3H1 IgG
binding result [1]: no binding
binding result [2]: no binding
fold reactivity against apoE3 [3]: 9 fold
binding result (apoE(1-240)): no binding
binding result (apoE(1-260)): no binding
binding result [4]: no binding
fold increase of reactivity against lipid-free apoE4 [5]: ~20 fold
fold increase of reactivity against lipid-free apoE3 [6]: ~120 fold
percent lower IC50 than for apoE3 [7]: ~90%
